The values below come from patent publication WO2004044204A2 (dated 2004).

The target in assay [1] is T1, β-amyloid peptide 1-42.
T1 construct: Synthesised on solid phase; It was coated on plates or used in solution; one result is told for its fibrillar form; also called Aβ42; peptide Aβ42
The experiment in a line: competition ELISA. On the technique in general: An ELISA detects its analyte on a solid surface through an enzyme-linked reagent.

Assay [2] deals with T1, β-amyloid peptide 1-42. The experiment in a line: ELISA with overlapping peptides that are fragments of Aβ42; the affinity is told for the carboxy terminal part.

B1: VHH ALZ L35 (VHH)
VHH: EVQLQASGGGLVQAGGSLRLSCAASGSTFSINVIGWYRQAPGKQRELVAGISRSGNTNYADSVEGRFTISRDYAKNTVYLQMNSLKPEDTAVYYCHSKTYLLHMYWGQGTQVTVSS
notes: Alpaca VHH, produced soluble in E. coli HB2151 from pHEN-1 and tested as culture supernatant; It was detected with anti-c-myc 9E10; also called VHH-L35; VHH L35
As for B1, in assay [1], the Kd (in general, the constant that tells how readily two partners part at equilibrium) came to 30 nM.

B2: VHH ALZ V31-1 (VHH)
VHH: EVQLQASGGGSVQPGGSLRLSCAASGFIFGWSTMSWVRQAPGKGLEWVSTISGGGSATTYTDSVKGRFTISRDRAKNTLYLQMNSLKPEDTAIYYCNADVSTGFRYQRKDYWGRGTQVTVSS
notes: Alpaca VHH, produced soluble in E. coli HB2151 from pHEN-1; It was detected with anti-c-myc 9E10; also called VHH-V31-1; VHH V31-1
B2 yielded a Kd in assay [2] of around 10 nM.

B3: VHH ALZ L1-3 (VHH)
VHH: EVQLQASGGGLVQAGGSLRLSCSASASTTFSMNTMAWHRQAPGKQRSLVALIGATHSINYEDSVKGRFTISRDNAKNTVYLQMSSLKPEDTAVYYCNDWYWQMKGGSWGQGTQVTVSS
notes: Alpaca VHH, produced soluble in E. coli HB2151 from pHEN-1 and tested as culture supernatant; It was detected with anti-c-myc 9E10; also called VHH ALZ Ll-3; VHH-L1-3
The molecule B3 displayed a Kd in assay [1] of 60 nM.
